This is an account of results in patent CN118525034A (INTERVET INT BV, dated 2024).

Assay [1] concerns the target 犬IL-31RA ECD-10His (犬 (canine)). Description: ELISA, IL-31RA ECD coated at 1 µg/mL, biotinylated canine IL-31 titrated, HRP-streptavidin. For orientation: ELISA stands for enzyme-linked immunosorbent assay.
Assay [2] concerns the target T1, 犬IL-31RA ECD-10His (犬 (canine)).
T1 chain: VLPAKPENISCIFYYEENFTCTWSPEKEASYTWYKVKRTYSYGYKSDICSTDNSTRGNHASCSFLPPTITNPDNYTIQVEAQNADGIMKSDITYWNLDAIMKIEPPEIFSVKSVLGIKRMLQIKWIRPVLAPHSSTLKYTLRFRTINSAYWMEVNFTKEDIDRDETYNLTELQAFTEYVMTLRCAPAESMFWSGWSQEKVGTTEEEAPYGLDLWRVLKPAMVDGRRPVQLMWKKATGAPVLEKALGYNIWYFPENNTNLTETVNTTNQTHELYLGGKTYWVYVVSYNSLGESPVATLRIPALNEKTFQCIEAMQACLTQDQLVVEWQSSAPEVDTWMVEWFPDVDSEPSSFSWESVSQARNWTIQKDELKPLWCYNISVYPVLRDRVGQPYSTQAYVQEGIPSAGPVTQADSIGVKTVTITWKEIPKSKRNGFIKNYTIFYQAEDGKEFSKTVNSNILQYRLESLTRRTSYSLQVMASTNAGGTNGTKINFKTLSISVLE
The experiment in a line: Octet BLI, biotinylated canine IL-31RA on SA biosensor, mAb 100-3.13 nM, 1:1 model. (In general: Biolayer interferometry detects binding as a change in optical thickness at a sensor tip.)

Assay [3] concerns the target T1, 犬IL-31RA ECD-10His. The experiment in a line: Octet BLI, biotinylated canine IL-31RA on SA biosensor.
The target in assay [4] is T1, 犬IL-31RA ECD-10His. Description: Octet BLI; upper end of the range, tied to 85C10 by Table 2.
Assay [5] has as its target T1, 犬IL-31RA ECD-10His. Description: Octet BLI; lower end of the range, tied to 224G3 by Table 2.

One may read the EC50 as the concentration needed to bring the measured effect to its halfway point. A high value points to lower potency in that assay. In the case of 犬IL-31 (ligand), the EC50 in assay [1] is 0.55 ng/mL.

B1: 65G9 (antibody, V domains shown)
VH: EFQLQQSGPELVKPGASVKISCKASGYSFTDYGMNWLKQINGKSLEWIAIINPNYGTASSNPKFKDKATLTVDHSSSTAYMQLSSLTSEDSAVYYCARAFDGYYFYWYFDVWGTGTTVTVSS
VL: SIVMTQTPKFLLVSAGDRVTITCKASQSVTNDVTWYQQKPGQSPKLLIFSASNRYTGVPDRFTGSGYGTDFTFTISTVQAEDLAVYFCQQDYSSPWTFGGGTKLEIK
Broadly, the Kd is the constant that tells how readily two partners part at equilibrium. Higher therefore signals lower affinity. Usually koff stands for the first-order rate constant of dissociation. Read a low koff as slow dissociation. The term kon denotes a measure of how fast the partners come together. A high value points to faster complex formation. Regarding B1, in assay [2], the Kd was 0.451 nM, the off-rate constant (koff) came to 0.000355 s⁻¹ and the kon amounted to 787000 M⁻¹ s⁻¹.

B2: 51F8 (antibody, V domains shown)
VH: EVQLQQSVAELVRPGASVKLSCTASGFNIKNTFIHWVKQRPEQGLEWIGRIDPANGNTKYAPKFQGRATLTADTSSNTAYLQLSSLTSEDTAIYYCARYYYVSSYFDVWGTGTTVTVSS
VL: SIVMTQTPKFLLVSAGDRVTITCKASQSVTNDVTWYQQKPGQSPKLLIYYASNRYTGVPDRFTGSGYGTDFTFTISTVQAEDLAVYFCQQDYSSPFTFGSGTKLEIK
For B2, in assay [2], the Kd is 0.207 nM, the koff came out at 0.000141 s⁻¹ and the kon was determined as 684000 M⁻¹ s⁻¹. The Kd in assay [3] is around 0.2 nM.

B3: 85C10 (antibody, V domains shown)
VH: EFQLQQSGPELVKPGASVKISCKASGYSFTDYSINWVKQSNGKSLEWIGVINPNYGTSSHNQKFKGKATMTVDQSSSTAYMQLNSLTSEDSAVYYCARALDDYYFYWYFDVWGIGTTVTVSS
VL: DVVMTQTPLSLPVSLGDQASISCRSSQSLIHTNGNTYLHWYLQKPGQSPKLLIYKVSNRFSGVPDRFSGSGSGTDFTLKISRLEAEDLGVYFCSQSTHVPLTFGAGTKLELR
In assay [2], B3 returned a Kd of 0.851 nM, a koff of 0.000363 s⁻¹ and a kon of 427000 M⁻¹ s⁻¹. In assay [4], this molecule came in with a Kd of 0.85 nM.

B4: 218D9 (antibody, V domains shown)
VH: QVTLKESGPGILQPSQTLSLTCSFSGFSLSTFGRGVGWIRQPSGKGLDWLTHIWWDDDKYYNPALKSRLTISKDTSKNQVFLKIANVDTADTATYYCARIAGGLRRAPYAMDSWGQGTSVTVSS
VL: DVVMTQTPLSLPVSLGDQASISCRSSQSLVHTNGNTYLHWYLQKPGQSPKLLIYKVSNRFSGVPDRFSGSGSGTDFTLKISRVEAEDLGVYFCSQTTHVPLTFGAGTKLELK
In assay [2], B4 returned an equilibrium dissociation constant (Kd) of 0.0698 nM, a koff of 4.63e-05 s⁻¹ and a kon of 664000 M⁻¹ s⁻¹. Moreover, the Kd in assay [3] was around 0.07 nM.

B5: 209G5 (antibody, V domains shown)
VH: EVQLQQSVAELVRPGASVKLSCTASGFNIKNTYMHWVKERPEQGLEWIGRIDPANGNSKYAPKFQGKATITTDTSSNTAYLQLSSLTSEDTAIYYCARYYYVSSHFDVWGTGTTVTVSS
VL: DIKMTQSPSSMYASLGERVTITCKASQDINSYLNWFQQKPGKSPKTLIYRADRLVDGVPSRFSGSGSGQDYSLTISSLEYEDMGIYYCLQYDEFPLTFGDGTKLELN
Turning to B5, in assay [2], the affinity, expressed as Kd, was 0.131 nM; the koff was determined as 4.87e-05 s⁻¹; the kon stood at 370000 M⁻¹ s⁻¹.

B6: 224G3 (antibody, V domains shown)
VH: EVQLVESGGDLVKPGGSLKLSCAASGFTFSSYGMSWVRQTPDKRLEWVATISNGGSYTYYPDSVKGRFTISRDNAKNTLYMQMSSLKSEDTAMYYCARNEPPDYWGQGTSVTVSS
VL: DIQMTQSPASLSVSVGETVTITCRASENIYSSLAWYQQKQGKSPQLLVYAATNLADGVPSRFSGSGSGTQYSLKINSLQSEDSGNYYCQHFRDTPPTFGGGTKLEIK
For B6, in assay [2], the Kd amounted to 0.000964 nM, the dissociation rate constant (koff) was determined as 1.08e-06 s⁻¹ and the kon amounted to 1.12e+06 M⁻¹ s⁻¹. In assay [5], this molecule gave a Kd of 0.001 nM.
